“And” between values parts separate entries of the source, which are not always exact repeats. Identical values can stand only once.
Experiments:
[1] = biological target: FLAG-BIRC6 (full-length baculoviral IAP repeat-containing protein 6) (human) (UniProt Q9NR09); experiment: cryo-EM structure; settings: remark: other sources report otherwise
[2] = biological target: 3xFLAG-BIRC6 (full-length, wild type) (human) (UniProt Q9NR09); experiment: FRET or BRET
[3] = biological target: 3xFLAG-BIRC6 ΔHelix (aa1616-1666 removed) (human, UniProt Q9NR09 1-4857, ΔHelix, aa1616-1666 removed); experiment: FRET or BRET
[4] = biological target: 3xFLAG-BIRC6 (full-length, wild type) (human, UniProt Q9NR09 1-4857); experiment: FRET or BRET
[5] = biological target: 3xFLAG-BIRC6 BIRmut (C328S/C331S) (human, UniProt Q9NR09 1-4857, C328S | C331S); experiment: FRET or BRET
[6] = biological target: FLAG-BIRC6 (full-length baculoviral IAP repeat-containing protein 6) (human, UniProt Q9NR09 1-4857); experiment: cryo-EM structure
[7] = biological target: the molecule itself; experiment: cryo-EM structure

Molecule: FLAG-BIRC6 (full-length baculoviral IAP repeat-containing protein 6), Q9NR09 1-4857
- stoichiometry N [1]: 2

Molecule: BODIPY-labeled caspase-7 (from UniProt P55210 1-303) (enzyme)
- Kd [2]: 4 nM

B1: BODIPY-labeled Smac-Cys (natural protein)
chain: AVPIAQKSEPHSLSSEALMRRAVSLVTDSTSTFLSQTTYALIEAITEYTKAVYTLTSLYRQYTSLLGKMNSEEEDEVWQVIIGARAEMTSKHQEYLKLETTWMTAVGLSEMAAEAAYQTGADQASITARNHIQLVKLQVEEVHQLSRKAETKLAEAQIEELRQKTQEEGEERAESEQEAYLREDC
modifications: BODIPY FL Maleimide on the introduced cysteine (degree of labeling 0.48)
- Kd [3]: 30 ± 5 nM
- Kd [4]: < 2 nM and 2 nM
- binding result [4]: binds
- Kd [5]: 26 ± 2 nM

B2: Smac-His9 (mature Smac without the N-terminal mitochondrial targeting sequence) (natural protein)
chain: AVPIAQKSEPHSLSSEALMRRAVSLVTDSTSTFLSQTTYALIEAITEYTKAVYTLTSLYRQYTSLLGKMNSEEEDEVWQVIIGARAEMTSKHQEYLKLETTWMTAVGLSEMAAEAAYQTGADQASITARNHIQLVKLQVEEVHQLSRKAETKLAEAQIEELRQKTQEEGEERAESEQEAYLRED
- binding result [6]: binds
- stoichiometry N [7]: 2

From publication doi:10.1101/2022.08.19.504532 (bioRxiv, 2022)
